For assay [1], the target named is human SIRPα expressed on the surface of human monocyte-derived dendritic cells (human) (UniProt P78324). In words: flow cytometry on human monocyte-derived dendritic cells.
The target is the same in assay [2]. The experiment in a line: flow cytometry, mDC surface binding, donor/experiment 1. In general terms: A flow cytometer gives signals particle by particle.
Assay [3] shares this target. The experiment in a line: flow cytometry, mDC surface binding, donor/experiment 3.
The target is the same in assay [4]. The experiment in a line: flow cytometry, mDC surface binding, donor/experiment 2.
Assay [5] shares this target. The experiment in a line: flow cytometry, mDC surface binding, donor/experiment 4.

Changes are numbered by the printed parent chain. Names and notes keep the numbering of the source.

Sequence of human SIRPα expressed on the surface of human monocyte-derived dendritic cells (human) (P78324 31-504): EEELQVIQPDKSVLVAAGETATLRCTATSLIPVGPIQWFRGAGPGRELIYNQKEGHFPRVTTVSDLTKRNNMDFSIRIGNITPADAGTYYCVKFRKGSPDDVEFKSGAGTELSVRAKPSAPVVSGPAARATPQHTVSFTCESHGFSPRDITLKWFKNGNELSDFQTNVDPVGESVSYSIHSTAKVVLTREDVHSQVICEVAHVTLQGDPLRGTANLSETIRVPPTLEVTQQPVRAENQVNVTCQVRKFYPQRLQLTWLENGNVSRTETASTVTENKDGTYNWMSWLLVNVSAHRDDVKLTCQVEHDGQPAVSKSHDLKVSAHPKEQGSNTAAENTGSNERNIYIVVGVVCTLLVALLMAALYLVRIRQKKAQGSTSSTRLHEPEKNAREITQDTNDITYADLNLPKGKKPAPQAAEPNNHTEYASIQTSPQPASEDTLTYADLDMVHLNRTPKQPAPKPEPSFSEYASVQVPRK

B1: 8H- IgG4 S228P (antibody, V domains shown)
VH: EVQLVESGGGLVQPGGSLRLSCAASGFSFSSSDYMCWVRQAPGKGLEWVGCINSGSDTTSYATWAKGRFTISRDNAKNTLYLQMNSLRAEDTAVYYCARGYGSAGANGYVIGMKYLNLWGQGTLVTVSS
VL: DIQMTQSPSSLSASVGDRVTITCQASQSIGSNLAWYQQKPGKAPKLLIYTASTLESGVPSRFSGSGSGTDFTLTISSLQPEDFATYYCQCTYGSSSSGYPFGGGTKVEIK
Usually Kd stands for the constant that tells how readily two partners part at equilibrium. A higher Kd goes with lower affinity. Take B1: the Kd in assay [1] was 1.66 nM.

B2: 4E10-IgG4 S228P (antibody, V domains shown)
VH: EVQLVESGGGLVQPGGSLRLSCAASGFSLSNYEMIWVRQAPGKGLEWVGIIYVSRSTHYASWAKGRFTISRDNSKNTLYLQMNSLRAEDTAVYYCGRYLASGGFNIWGQGTLVTVSS
VL: DIQMTQSPSTLSASVGDRVTITCQASHNIYSNLAWYQQKPGKAPKLLIYDASKLASGVPSRFSGSGSGTEFTLTISSLQPDDFATYYCQSYYGNSYPFGGGTKVEIK
B2 gave a Kd in assay [1] of 0.264 nM.

B3: 4H- IgG4 S228P (antibody, V domains shown)
VH: EVQLVESGGGLVQPGGSLRLSCAASGFSFSSYYFMCWVRQAPGKGLEWVACIDAGYSGGSHYASWAKGRFTISRDNSKNTLYLQMNSLRAEDTAVYYCARAYEYGYGGYDLWGQGTLVTVSS
VL: DIQMTQSPSSLSASVGDRVTITCQASQSIDSNLAWYQQKPGKAPKLLIYRASGLESGVPSRFSGSGSGTDFTLTISSLQPEDFATYYCQCTYGSNDSGNYANAFGGGTKVEIK
In assay [1], B3 registered a Kd of 0.0881 nM.

B4: 89H-IgG4 S228P (antibody, V domains shown)
VH: EVQLVESGGGLVQPGGSLRLSCAASGFSLSTYAMIWVRQAPGKGLEWVGIISPSGTTYYATWAKGRFTISRDNSKNTLYLQMNSLRAEDTAVYYCARAGSGGWDYFNIWGQGTLVTVSS
VL: DIQMTQSPSSLSASVGDRVTITCQASQSISSYLSWYQQKPGKAPKLLIYYASNLASGVPSRFSGSGSGTDFTLTISSLQPEDFATYYCQSYYYSNNYNWAFGGGTKVEIK
For the molecule B4, the Kd was 0.378 nM in assay [1]; 1.04 nM in assay [2]; 0.881 nM in assay [3]; 0.923 nM in assay [4]; 0.908 nM in assay [5].

B5: 14H2B-IgG4 S228P (antibody, V domains shown)
VH: EVQLVESGGGLVQPGGSLRLSCAASGIDLSSYSMIWVRQAPGKGLEWIGIIYTGGSTDYASWAKGRFTISRDNSKNTLYLQMNSLRAEDTAVYYCARENSHDTFDPWGQGTLVTVSS
VL: DIQMTQSPSSLSASVGDRVTITCQSSQSVYTNYQSWYQQKPGKAPKLLIYAASTLASGVPSRFSGSGSGTDFTLTISSLQPEDFATYYCLGSYVSSGWYYAFGGGTKVEIK
As for B5, the Kd in assay [1] was determined as 0.686 nM; in assay [2], 1.48 nM; in assay [3] it was 0.99 nM; in assay [4], 0.953 nM; in assay [5], 1.33 nM.

B6: 44H-IgG4 S228P (antibody, V domains shown)
VH: B5 VH with I27F, D28S, I48V, G55S, T57A, D58S
VL: B5 VL with Q34L
Regarding B6, the Kd in assay [1] came to 0.672 nM.

B7: OSE-172 (antibody, from another filing, V domains shown)
VH: EVQLVQSGAEVKKPGESLRISCKASGYSFTSYWVHWVRQMPGKGLEWMGNIDPSDSDTHYSPSFQGHVTLSVDKSISTAYLQLSSLKASDTAMYYCVRGGTGTLAYFAYWGQGTLVTVSS
VL: DVVMTQSPLSLPVTLGQPASISCRSSQSLVHSYGNTYLYWFQQRPGQSPRLLIYRVSNRFSGVPDRFSGSGSGTDFTLKISRVEAEDVGVYYCFQGTHVPYTFGGGTKVEIKR
Consider B7, for which the Kd in assay [1] stood at 0.572 nM.

These data come from patent US20230340112A1.
